Each block holds one substance with its values, some of them ahead of it.
Tests used:
[1] = biological target: mCherry-(GGS)6-Rac1(1-188)-His8 (UniProt P63000); experiment: membrane recruitment assay on supported lipid bilayers (TIRF microscopy); settings: mCherry-Rac1 Q61L/P29S-His8 anchored on bilayers containing 2% Ni2+-NTA-DGS lipid; parent: est. 0.72; read off a plot
[2] = biological target: EGFP-tagged WRC, wild type (Sra1, Nap1, MBP-EGFP-HSPC300, MBP-Abi2(1-158), MBP-WAVE1(1-230)), Q7L576;Q9Y2A7;Q8WUW1;Q9NYB9;Q92558; experiment: as above; settings: WT EGFP-WRC; parent value is Rac1 WT loaded with GMPPNP (Rac1 WT GDP bar est. 0.045); parent: est. 0.23; read off a plot
[3] = biological target: GST-Rac1(1-188) (Q61L/P29S) (UniProt P63000); experiment: other; GST-dimer model, KD,2 (second WRC); settings: complex; chains chain;chain;chain;chain;chain
[4] = biological target: GST-Rac1(1-188) (Q61L/P29S) (UniProt P63000); experiment: pull-down; equilibrium pull-down (EPD): 0.1 μM ΔWRC230, 0.01 to 140 μM GST-Rac1(1-188) (Q61L/P29S), Glutathione Sepharose; 20 mM HEPES pH 7, 100 mM NaCl, 5% glycerol, 2 mM MgCl2, 5 mM β-mercaptoethanol, 0.05% Triton X100; 4°C, 30 min; unbound WRC in the supernatant quantified by SDS-PAGE; fits in DynaFit
[5] = biological target: GST-Rac1(1-188) (Q61L/P29S) (UniProt P63000); experiment: other; GST-dimer model, KD,1; settings: complex; chains chain;chain;chain;chain;chain

Substance: mCherry-Rac1-His8 wild type (GMPPNP) Q61L; P29S
- response [2]: 0.72

Substance: ΔWRC230 with Sra1 C179R (Sra1, Nap1, HSPC300, MBP-Abi2(1-158), MBP-WAVE1(1-230)), Q7L576 1-1253; Q9Y2A7 1-1128; Q8WUW1 1-75; Q9NYB9 1-158; Q92558 1-230
- Kd [3]: 0.144 µM
- Kd [4]: 0.265 µM
- Kd [5]: 0.201 µM

Substance: ΔWRC230 with Sra1 Y967A (Sra1, Nap1, HSPC300, MBP-Abi2(1-158), MBP-WAVE1(1-230)), Q7L576 1-1253; Q9Y2A7 1-1128; Q8WUW1 1-75; Q9NYB9 1-158; Q92558 1-230
- KD,A (A Site, first WRC, GST-dimer model) [4]: 11.5 µM
- KD,A (A Site, single-site model) [4]: 10.8 µM
- KD,A (A Site, two-site model) [4]: 9.6 µM
- KD,A’ (A Site of the second WRC, GST-dimer model) [4]: 0.033 µM

Substance: ΔWRC230, wild type (Sra1, Nap1, HSPC300, MBP-Abi2(1-158), MBP-WAVE1(1-230)), Q7L576 1-1253; Q9Y2A7 1-1128; Q8WUW1 1-75; Q9NYB9 1-158; Q92558 1-230
- KD,A(D) (A Site of the D Site-bound WRC, sequential two-site model) [4]: 0.262 µM
- KD,D (D Site, sequential two-site model) [4]: 0.169 µM
- KD,D (D Site, single-site model) [4]: 0.106 µM
- Kd [5]: 0.067 µM

Next, values leading:

- response [1]: 0.36
Substance: EGFP-tagged WRC, wild type (Sra1, Nap1, MBP-EGFP-HSPC300, MBP-Abi2(1-158), MBP-WAVE1(1-230)) (from UniProt Q7L576;Q9Y2A7;Q8WUW1;Q9NYB9;Q92558) C179R

- response [1]: 0.8
Substance: EGFP-tagged WRC, wild type (Sra1, Nap1, MBP-EGFP-HSPC300, MBP-Abi2(1-158), MBP-WAVE1(1-230)) (from UniProt Q7L576;Q9Y2A7;Q8WUW1;Q9NYB9;Q92558) S969F

- response [1]: 0.12
Substance: EGFP-tagged WRC, wild type (Sra1, Nap1, MBP-EGFP-HSPC300, MBP-Abi2(1-158), MBP-WAVE1(1-230)) (from UniProt Q7L576;Q9Y2A7;Q8WUW1;Q9NYB9;Q92558) Y967A
